Reference: US20060193771A1

Legend:
[1] = target: human CD30, native, expressed on cells (human); assay: competitive FACS on L540 cells, unlabeled MAb 2.5 µg/ml; competitor: biotin-HRS-4
[2] = target: human CD30, native, expressed on cells (human); assay: competitive FACS on L540 cells, unlabeled MAb 2.5 µg/ml; competitor: biotin-T25
[3] = target: human CD30, native, expressed on cells (human); assay: FACS, L428 cells, MAb 5 µg/ml, control HeFi-I
[4] = target: human CD30, native, expressed on cells (human); assay: competitive FACS on L540 cells, unlabeled MAb 2.5 µg/ml; competitor: biotin-T24
[5] = target: human CD30, native, expressed on cells (human); assay: competitive FACS on L540 cells, unlabeled MAb 2.5 µg/ml; competitor: biotin-HeFi-I
[6] = target: human CD30, native, expressed on cells (human); assay: FACS, L540 cells, MAb 5 µg/ml, control HeFi-I
[7] = target: human CD30, native, expressed on cells (human); assay: competitive FACS on L540 cells, unlabeled MAb 2.5 µg/ml; competitor: biotin-T14
CD30-Fc (human) = target: T1, CD30-Fc (human); assay: indirect ELISA, CD30-Fc coated
T1 sequence: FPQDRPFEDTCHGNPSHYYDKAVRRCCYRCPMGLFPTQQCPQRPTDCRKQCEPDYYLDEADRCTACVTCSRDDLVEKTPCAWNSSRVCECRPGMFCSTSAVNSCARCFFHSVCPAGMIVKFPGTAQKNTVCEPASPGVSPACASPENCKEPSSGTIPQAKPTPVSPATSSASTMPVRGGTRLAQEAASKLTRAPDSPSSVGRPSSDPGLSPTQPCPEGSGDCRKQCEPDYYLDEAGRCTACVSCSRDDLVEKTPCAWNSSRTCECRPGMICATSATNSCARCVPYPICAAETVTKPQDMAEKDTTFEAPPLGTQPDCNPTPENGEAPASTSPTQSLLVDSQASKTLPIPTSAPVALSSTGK

[8] = target: human CD30, native, expressed on cells (human); assay: competitive FACS on L540 cells, unlabeled MAb 2.5 µg/ml; competitor: biotin-T6
[9] = target: T2, recombinant soluble CD30 (sCD30) produced in E. coli (human); assay: indirect ELISA, sCD30 coated
T2 sequence: T1 sequence

[10] = target: transferrin receptor on L540 cells (UniProt P02786); assay: cell-based or functional assay
Chain of transferrin receptor on L540 cells (P02786 whole entry): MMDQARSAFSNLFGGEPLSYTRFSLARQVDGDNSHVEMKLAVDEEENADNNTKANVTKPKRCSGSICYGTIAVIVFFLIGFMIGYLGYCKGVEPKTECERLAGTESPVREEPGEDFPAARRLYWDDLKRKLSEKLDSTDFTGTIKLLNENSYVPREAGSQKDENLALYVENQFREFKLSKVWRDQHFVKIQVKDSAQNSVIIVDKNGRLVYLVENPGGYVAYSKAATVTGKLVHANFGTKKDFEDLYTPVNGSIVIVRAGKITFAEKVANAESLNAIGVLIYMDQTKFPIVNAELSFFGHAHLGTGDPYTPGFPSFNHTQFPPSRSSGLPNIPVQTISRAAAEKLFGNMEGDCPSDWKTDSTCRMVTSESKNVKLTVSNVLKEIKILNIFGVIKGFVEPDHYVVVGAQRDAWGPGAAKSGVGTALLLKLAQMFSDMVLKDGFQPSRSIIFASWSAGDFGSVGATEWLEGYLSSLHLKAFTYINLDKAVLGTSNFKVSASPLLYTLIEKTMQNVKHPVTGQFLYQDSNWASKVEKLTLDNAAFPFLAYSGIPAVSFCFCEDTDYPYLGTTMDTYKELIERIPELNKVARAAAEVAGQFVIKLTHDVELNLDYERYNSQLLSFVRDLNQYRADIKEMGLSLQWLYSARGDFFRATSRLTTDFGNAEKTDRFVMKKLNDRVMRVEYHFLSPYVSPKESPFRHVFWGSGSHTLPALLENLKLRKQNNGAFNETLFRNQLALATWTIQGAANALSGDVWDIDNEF

[11] = target: human CD30, native, expressed on cells (human); assay: FACS, L540 cells, control HeFi-I
[12] = target: human CD30, native, expressed on cells (human); assay: FACS, L428 cells, control HeFi-I

Chain of HB21(scFv)-PE40 (P11439 278-638): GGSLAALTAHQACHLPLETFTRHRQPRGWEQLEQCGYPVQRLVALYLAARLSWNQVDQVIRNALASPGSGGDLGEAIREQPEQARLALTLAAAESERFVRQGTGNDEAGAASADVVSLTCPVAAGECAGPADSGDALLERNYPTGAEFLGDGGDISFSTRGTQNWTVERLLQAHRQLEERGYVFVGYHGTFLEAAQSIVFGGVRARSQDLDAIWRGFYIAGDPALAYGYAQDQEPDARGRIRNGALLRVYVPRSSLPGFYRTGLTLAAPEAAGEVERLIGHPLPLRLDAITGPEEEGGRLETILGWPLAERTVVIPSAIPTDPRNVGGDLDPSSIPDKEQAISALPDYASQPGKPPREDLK

| Substance | inhibition of the binding of biotin-MAb (%) [1] [%] | inhibition of the binding of biotin-MAb (%) [2] [%] | relative reactivity in FACS (% of control) [3] | inhibition of the binding of biotin-MAb (%) [4] [%] | inhibition of the binding of biotin-MAb (%) [5] [%] | relative reactivity in FACS (% of control) [6] | inhibition of the binding of biotin-MAb (%) [7] [%] | titer in ELISA (CD30-Fc (human)) [mL/µg] | inhibition of the binding of biotin-MAb (%) [8] [%] | titer in ELISA [9] [mL/µg] | IC50 (ng/ml) in cytotoxicity test, A431/CD25 cells [10] [ng/mL] | IC50 (ng/ml) in cytotoxicity test, A431/CD30 cells [10] [ng/mL] | IC50 (ng/ml) in cytotoxicity test, HUT102W cells [10] [ng/mL] | IC50 (ng/ml) in cytotoxicity test, SUDHL-1 cells [10] [ng/mL] | IC50 (ng/ml) in cytotoxicity test, SUP-M2 cells [10] [ng/mL] | relative reactivity in FACS (% of control) [11] | relative reactivity in FACS (% of control) [12] |
| --- | --- | --- | --- | --- | --- | --- | --- | --- | --- | --- | --- | --- | --- | --- | --- | --- | --- |
| Ber-H2 MAb (antibody) | 80.3 | 23.3 | 160 % of control | 18.2 | 0 | 111 % of control | 108 | 75 | 75.6 | 50 |  |  |  |  |  |  |  |
| HB21(scFv)-PE40 (from UniProt P11439 278-638) |  |  |  |  |  |  |  |  |  |  | 0.03 | 0.02 | 1.5 | 0.05 | 0.02 |  |  |
| HRS-4 MAb (antibody) | 82.6 | 25 |  | 3.9 | 0 |  | 108 | 50 | 87.4 |  |  |  |  |  |  |  |  |
| control mouse IgG1 (antibody) |  |  |  |  |  |  |  |  |  |  |  |  |  |  |  | 0.2 % of control | 16 % of control |
